Results published in patent US20220396620A1 (Takeda / Millennium, published 2022).

Experiments:
[1] = target: T1, human cannabinoid receptor type 1 (CB1) (human, UniProt P21554 1-472); assay: flow cytometry, single point at 30 ug/mL antibody, signal on CHO-huCB-1 cells relative to CHO parental cells
T1 construct: DiscoverX cAMP Hunter CHO-K1 CNR1 Gi cells for cAMP and pERK assays; also called huCB1; huCB-1

[2] = target: T1, human cannabinoid receptor type 1 (CB1); assay: cell-based or functional assay
[3] = target: T1, human cannabinoid receptor type 1 (CB1); assay: FACS, titration on CB1 over-expressing CHO cells
Description: (§1) Antibody binding was tested in a fluorescence activated cell sorting (FACS)-based assay for the ability of the mouse anti-CB1 antibodies to bind parental CHO cells, human CB-1 overexpressing CHO cells and mouse CB-1 overexpressing CHO cells to obtain binding curves and EC50 values. The three cell lines were harvested, washed and dispensed at 1×10⁵ cells per well of a v-bottomed 96-well polycarbonate FACS plates (Corning, Corning, N.Y., Cat. No. 3357) in 50 μl of FACS buffer (1×PBS/2 mM EDTA and 1% FBS (ThermoFisher Scientific, Anaheim, Calif.; Cat. No. 10438-026). Serial dilutions of the antibodies were prepared at 2× concentrations starting at 200 nM and serially diluted 3-fold. The titrated antibodies were added to the plates containing the three different cell lines (parental, human and mouse CB-1 CHO cells) and incubated at 4° C. for 1 hour. The plates were washed 3× with FACS buffer. […] None of the eight functional antibodies tested were mouse cross reactive (FIG. 3).

mouse CB-1 = target: T2, mouse CB-1 (mouse, UniProt P47746 1-473); assay: flow cytometry on CHO-Mouse CB1 cells, 3-fold antibody titration from 200 nM
T2 construct: whole, on cells; also called moCB1; moCB1-CHO cells
T2 sequence (P47746 whole entry): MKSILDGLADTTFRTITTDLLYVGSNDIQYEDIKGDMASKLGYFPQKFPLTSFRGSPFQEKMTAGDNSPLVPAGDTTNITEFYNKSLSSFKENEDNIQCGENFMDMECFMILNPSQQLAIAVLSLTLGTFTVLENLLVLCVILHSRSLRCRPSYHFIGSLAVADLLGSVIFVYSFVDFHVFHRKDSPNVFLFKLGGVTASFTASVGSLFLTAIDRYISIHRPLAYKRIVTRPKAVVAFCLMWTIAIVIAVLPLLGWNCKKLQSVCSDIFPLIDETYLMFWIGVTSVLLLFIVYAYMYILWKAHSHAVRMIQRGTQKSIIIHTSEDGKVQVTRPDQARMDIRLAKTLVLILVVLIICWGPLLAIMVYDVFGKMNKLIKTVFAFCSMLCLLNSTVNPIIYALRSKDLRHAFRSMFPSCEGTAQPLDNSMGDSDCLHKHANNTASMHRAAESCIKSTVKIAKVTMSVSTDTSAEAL
Description: as §1

T1 sequence (P21554 whole entry): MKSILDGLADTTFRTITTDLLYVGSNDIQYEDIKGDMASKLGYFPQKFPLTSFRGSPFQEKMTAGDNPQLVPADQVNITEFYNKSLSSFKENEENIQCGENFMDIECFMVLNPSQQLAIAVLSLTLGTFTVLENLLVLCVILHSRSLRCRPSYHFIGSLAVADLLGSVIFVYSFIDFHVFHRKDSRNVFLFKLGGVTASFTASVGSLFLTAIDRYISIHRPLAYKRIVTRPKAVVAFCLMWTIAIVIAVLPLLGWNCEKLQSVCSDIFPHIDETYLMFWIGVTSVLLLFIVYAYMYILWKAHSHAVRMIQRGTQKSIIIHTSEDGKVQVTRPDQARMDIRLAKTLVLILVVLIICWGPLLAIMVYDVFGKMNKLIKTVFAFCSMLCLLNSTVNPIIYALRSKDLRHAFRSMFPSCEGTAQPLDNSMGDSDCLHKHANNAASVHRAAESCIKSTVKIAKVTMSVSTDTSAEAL

Row | Binder | binding result [1] | Mean P-ERK (% inhibition) [2] [% inhibition] | Mean cAMP (% Amgen) [2] [% Amgen] | P-ERK IC50 (nM) Data Set 1 [2] [nM] | P-ERK IC50 (nM) Data Set 2 [2] [nM] | cAMP EC50 (nM) Data Set 1 [2] [nM] | cAMP EC50 (nM) Data Set 2 [2] [nM] | cAMP EC50 (nM) Data Set 3 [2] [nM] | EC50 [3] [nM] | binding result (mouse CB-1)
1 | M7-H8 humanized anti-CB1 antibody (antibody, human IgG1, kappa, L234A L235A, V domains shown) VH: QVQLVQSGAEVKKPGASVKLSCKASSYTFTRYWMNWVRQAPGQGLEWIGMIDPYDSETHYNQKFQGRATLTVDTSTSTAYMELSSLRSEDTAVYFCARSQPRYYAMDYWGQGTTVTVSS VL: DIQMTQSPSSLSASLGDRVTLTCRASQEISGFLSWLQLKPGKTIKRLIYAASSLDSGVPSRFSGSWSGTDYTLTISSLQPEDFADYYCLQYSSYPYTFGGGTKLEIKR | binds |  |  |  |  |  |  |  |  | 
2 | M7-H12 humanized anti-CB1 antibody (antibody, human IgG1, kappa, L234A L235A) heavy: not shown light: DIQMTQSPSSLSASVGDRVTLTCRASQEISGFLSWLQLKPGKAIKRLIYAASSLDSGVPSRFSGSWSGTDYTLTISSLQPEDFADYYCLQYSSYPYTFGGGTKLEIKRTVAAPSVFIFPPSDEQLKSGTASVVCLLNNFYPREAKVQWKVDNALQSGNSQESVTEQDSKDSTYSLSSTLTLSKADYEKHKVYACEVTHQGLSSPVTKSFNRGEC | binds |  |  |  |  |  |  |  |  | 
3 | M7-H14 humanized anti-CB1 antibody (antibody, human IgG1, kappa, L234A L235A, V domains shown) VH: QVQLVQSGAEVKKPGASVKVSCKASSYTFTRYWMNWVRQAPGQGLEWMGMIDPYDSETHYNQKFQGRVTMTRDTSTSTVYMELSSLRSEDTAVYYCARSQPRYYAMDYWGQGTTVTVSS VL: DIQMTQSPSSLSASVGDRVTLTCRASQEISGFLSWLQLKPGKAIKRLIYAASSLDSGVPSRFSGSWSGTDYTLTISSLQPEDFADYYCLQYSSYPYTFGGGTKLEIKR | binds |  |  |  |  |  |  |  |  | 
4 | M7-H11 humanized anti-CB1 antibody (antibody, human IgG1, kappa, L234A L235A, V domains shown) VH: QVQLVQSGAEVKKPGASVKVSCKASSYTFTRYWMNWVRQAPGQGLEWMGIIDPYDSETSYAQKFQGRVTMTRDTSTSTVYMELSSLRSEDTAVYYCARSQPRYYAMDYWGQGTTVTVSS VL: DIQMTQSPSSLSASLGDRVTLTCRASQEISGFLSWLQLKPGKTIKRLIYAASSLDSGVPSRFSGSWSGTDYTLTISSLQPEDFADYYCLQYSSYPYTFGGGTKLEIKR | binds |  |  |  |  |  |  |  |  | 
5 | M7-H16 humanized anti-CB1 antibody (antibody, human IgG1, kappa, L234A L235A, V domains shown) VH: QVQLVQSGAEVKKPGASVKVSCKASSYTFTRYWMNWVRQAPGQGLEWMGIIDPYDSETSYAQKFQGRVTMTRDTSTSTVYMELSSLRSEDTAVYYCARSQPRYYAMDYWGQGTTVTVSS VL: DIQMTQSPSSLSASVGDRVTLTCRASQEISGFLSWLQLKPGKAIKRLIYAASSLDSGVPSRFSGSWSGTDYTLTISSLQPEDFADYYCLQYSSYPYTFGGGTKLEIKR | binds |  |  |  |  |  |  |  |  | 
6 | M7-H9 humanized anti-CB1 antibody (antibody, human IgG1, kappa, L234A L235A, V domains shown) VH: QVQLVQSGAEVKKPGASVKVSCKASSYTFTRYWMNWVRQAPGQGLEWMGMIDPYDSETHYNQKFQGRVTMTRDTSTSTVYMELSSLRSEDTAVYYCARSQPRYYAMDYWGQGTTVTVSS VL: DIQMTQSPSSLSASLGDRVTLTCRASQEISGFLSWLQLKPGKTIKRLIYAASSLDSGVPSRFSGSWSGTDYTLTISSLQPEDFADYYCLQYSSYPYTFGGGTKLEIKR | binds |  |  |  |  |  |  |  |  | 
7 | M7-H13 humanized anti-CB1 antibody (antibody, human IgG1, kappa, L234A L235A, V domains shown) VH: QVQLVQSGAEVKKPGASVKLSCKASSYTFTRYWMNWVRQAPGQGLEWIGMIDPYDSETHYNQKFQGRATLTVDTSTSTAYMELSSLRSEDTAVYFCARSQPRYYAMDYWGQGTTVTVSS VL: DIQMTQSPSSLSASVGDRVTLTCRASQEISGFLSWLQLKPGKAIKRLIYAASSLDSGVPSRFSGSWSGTDYTLTISSLQPEDFADYYCLQYSSYPYTFGGGTKLEIKR | binds |  |  |  |  |  |  |  |  | 
8 | M7-H10 humanized anti-CB1 antibody (antibody, human IgG1, kappa, L234A L235A, V domains shown) VH: QVQLVQSGAEVKKPGASVKVSCKASSYTFTRYWMNWVKQRPGEGLEWMGMIDPYDSETHYNQKFQGKVTMTVDKSSSTVYMELSSLRSEDTAVYFCARSQPRYYAMDYWGQGTTVTVSS VL: DIQMTQSPSSLSASLGDRVTLTCRASQEISGFLSWLQLKPGKTIKRLIYAASSLDSGVPSRFSGSWSGTDYTLTISSLQPEDFADYYCLQYSSYPYTFGGGTKLEIKR | binds |  |  |  |  |  |  |  |  | 
9 | M7-H15 humanized anti-CB1 antibody (antibody, human IgG1, kappa, L234A L235A, V domains shown) VH: QVQLVQSGAEVKKPGASVKVSCKASSYTFTRYWMNWVKQRPGEGLEWMGMIDPYDSETHYNQKFQGKVTMTVDKSSSTVYMELSSLRSEDTAVYFCARSQPRYYAMDYWGQGTTVTVSS VL: DIQMTQSPSSLSASVGDRVTLTCRASQEISGFLSWLQLKPGKAIKRLIYAASSLDSGVPSRFSGSWSGTDYTLTISSLQPEDFADYYCLQYSSYPYTFGGGTKLEIKR | binds |  |  |  |  |  |  |  |  | 
10 | M1 mouse anti-huCB-1 antibody (antibody, V domains shown) VH: QVQLQQSGAELVRPGVSVKISCKGSGYTFTDHALHWVKQSQARSLEWIGIISTYYGDATYNQKFKGKATMTVDKSSSTAYMELARLTSEDSAFYYCARGGLYYGTNYRAMDYWGQGTSVTVSS VL: DIVMTQSQKFMSTSVGDRVSVTCKASQNVGSNVAWYQQKPGQSPKALIYSASYRYSGVPDRFTGSGSGTDFTLTISNVQSEDLAEYFCQQYNNYPFTFGSGTKLEIK |  | 68 | 75 | 163 | 165 | 43 | 170 | 150 | 15.7 | no binding (tested: 200 nM)
11 | M2 mouse anti-huCB-1 antibody (antibody, V domains shown) VH: EVQLQQSGPELVKPGTSVKISCKASGYTFTDYNMHWVKLGKSLEWIGYFYPDDGGSGYNQKFKGKATLTIDKSSSTAYMELHSLTSEDSAVYYCARGYGNSWGTYWGQGTLVTVSA VL: EIVLTQSPTTMAASPGEKITITCSASSRISSNYLYWYQQKPGFSPKLLIYRTSNLASGVPARFSGSGSGTSYSLTIGTMEAEDVATYYCQQGSSIPYTFGGGTKLEIK |  | 59 | 49 | 219 | 211 | 380 | 340 | 270 | 34.7 | 
12 | M6 mouse anti-huCB-1 antibody (antibody, V domains shown) VH: EVQLQQSGPELVKPGASVKISCKASGYTFTDYNLHWVKHGKSLEWIGYIYPYDGDTGYKQKFKGKATLTADKSSSTAYMELRSLTCEDSAVYYCARGYGNSWGAYWGQGTLVTVSA VL: EIVLTQSPTTMAASPGEKITITCSATSSISSNYLHWYQQKPGFSPKLLIYRTSNLASGVPARFSGSGSGTSYSLTIGTMEAEDVATYYCQQGSSIPYTFGGGTKLEIK |  | 42 | 21 | 144 | 300 | 310 | 290 | 640 | 43.5 | 
13 | M3 mouse anti-huCB-1 antibody (antibody, V domains shown) VH: QVQLQQSGPELVRPGVSVKISCKGSGYEFTDYALHWVKQSHAETLEWIGLITTYYGDTNYNQKFKGKATMTVDKSSSTAYMELARLTSEDSAIYYCARGGYYYGTDYRYFDVWGAGTTVTVSS VL: DILLTQSPAILSVSPGERVSFSCRASQSIGTNIHWYQQRPNGSPRLLIKYASESISGIPSRFSGSGSGSDFTLSINSVESEDIADYYCQQSITWPLTFGAGTKLELK |  | 59 | 71 | 296 | 534 | 290 | 290 | 330 | 61.6 | no binding (tested: 200 nM)
14 | M4 mouse anti-huCB-1 antibody (antibody, V domains shown) VH: QVQLQQSGAELVRPGSSVKISCKASGYEFNYYWMNWVKQRPGQGLEWIGQIYPGDGDINYNGKFKGKATLTSDKSSSTVYMQLSSLTSEDSAVYFCSRSKGNPFAYWGQGTLVTVSA VL: DIQMTQTTSSLSASLGDSVTISCRASQGIRNYLNWYQQKPDGTVKLLIYYTSRLHSGVPPRFSGSGSGTDYSLTISNLEQEDLATYFCQQGNTLPYTFGGGTKLEIK |  | 70 | 41 | 97 | 890 | 180 | 320 | 430 | 19.2 | no binding (tested: 200 nM)
